The labels stand for the following.
B1: Hairpin Ribozyme (parent)
chain: GUCCUCUUUCACGUGCGCGUGAAAGAGAGAAGUGAACCAGAGAAACACACGUUGUGGUAUAUUACCUGGUA

In the data set the parent is B1. Kind of data set: self-cleavage, relative activity (ratio to wild type); higher = more cleavage; co-transcriptional.
Regarding C12U C48G, the self-cleavage came out at 0.185.

On to G13U C48U, for which the self-cleavage amounted to 0.125.

Take G13U C48A: the self-cleavage came to 0.0958.

Consider G13U C50A, for which the self-cleavage stood at 0.213.

In the case of G13U C50G, the self-cleavage stood at 0.259.

Regarding G13C G69U, the self-cleavage was found to be 0.217.

G13U G42A: the self-cleavage was 0.16.

In the case of G13U G42U, the self-cleavage was 0.289.

In the case of G13A G27U, the self-cleavage is 0.257.

As for G13U U52A, the self-cleavage was determined as 0.83.

For U14A G40A, the self-cleavage came out at 0.317.

Take U14A G40C: the self-cleavage is 0.187.

Consider U14A G40U, for which the self-cleavage amounted to 0.127.

For G13A C50G, the self-cleavage came to 0.316.

With G13A A45U, the self-cleavage turned out to be 0.0732.

On to G13A A45C, for which the self-cleavage came out at 0.135.

For the variant G13C G17C, the self-cleavage came to 0.368.

G13C G17A: the self-cleavage was found to be 0.839.

For G13A A31U, the self-cleavage was found to be 0.202.

Take U14A G34A: the self-cleavage came to 1.31.

On to U14A G34C, for which the self-cleavage is 1.19.

For G13A G25C, the self-cleavage was 0.36.

In the case of G13C C65U, the self-cleavage stood at 0.243.

In the case of U14C A43U, the self-cleavage was 0.094.

Turning to U14C A43C, the self-cleavage was 0.114.

For the variant U14C A43G, the self-cleavage turned out to be 0.147.

For the variant G13A A36G, the self-cleavage stood at 0.873.

In the case of G13A A36C, the self-cleavage is 0.533.

Turning to C12U A49G, the self-cleavage was determined as 0.564.

Take C12G G42C: the self-cleavage came out at 0.351.

Take G13U U58G: the self-cleavage amounted to 0.645.

Turning to G13A A61C, the self-cleavage came out at 0.223.

For G13A A61G, the self-cleavage worked out at 0.196.

Turning to C12U G40A, the self-cleavage came to 0.358.

Take C12U G40C: the self-cleavage was 0.194.

Regarding U14A G32C, the self-cleavage is 0.157.

As for G13C G29C, the self-cleavage stood at 0.189.

For U14A C66U, the self-cleavage was 0.335.

Take G13U A24U: the self-cleavage is 0.595.

As to G13U A24C, the self-cleavage is 0.563.

As to C12U U14A, the self-cleavage amounted to 0.73.

On to C12U U14G, for which the self-cleavage worked out at 0.602.

In the case of G13C C37A, the self-cleavage amounted to 0.204.

For the variant G13C C37U, the self-cleavage is 0.508.

For the variant G13A A22U, the self-cleavage stood at 0.748.

Turning to G13C U53C, the self-cleavage was found to be 0.535.

For G13C A39U, the self-cleavage came to 0.289.

As for C12U U70C, the self-cleavage came out at 0.96.

Regarding C12U U33C, the self-cleavage came to 0.187.

Take G13U U67A: the self-cleavage came to 0.257.

On to U14A A45C, for which the self-cleavage turned out to be 0.21.

As for U14A A45U, the self-cleavage worked out at 0.116.

For U14A A31G, the self-cleavage amounted to 0.52.

With U14A A31C, the self-cleavage turned out to be 0.391.

Regarding C12U A41C, the self-cleavage is 0.886.

Take G13U A49U: the self-cleavage came out at 0.169.

For G13A A39U, the self-cleavage amounted to 0.32.

Turning to G13A A39C, the self-cleavage turned out to be 0.446.

With G13U A26U, the self-cleavage is 0.52.

As for G13U A26C, the self-cleavage is 0.416.

Consider G13C A59U, for which the self-cleavage is 0.132.

As to C12G G15U, the self-cleavage turned out to be 0.906.

As to C12G G15C, the self-cleavage came to 0.756.

For G13C C48A, the self-cleavage is 0.16.

U14A C16G: the self-cleavage came to 0.594.

In the case of U14A C16U, the self-cleavage was found to be 0.813.

Consider U14A C16A, for which the self-cleavage amounted to 0.849.

G13U G19U: the self-cleavage came out at 0.895.

On to G13U A23U, for which the self-cleavage was 0.709.

Regarding C12U C66A, the self-cleavage is 0.179.

Regarding C12U G29U, the self-cleavage came to 0.0791.

Consider C12U G29C, for which the self-cleavage came to 0.133.

As for G13A U33G, the self-cleavage turned out to be 0.136.

Take G13A U33C: the self-cleavage is 0.139.

For the variant G13A U33A, the self-cleavage amounted to 0.165.

As to G13C U33C, the self-cleavage stood at 0.296.

For C12G C37G, the self-cleavage stood at 0.294.

On to C12G U63G, for which the self-cleavage was found to be 0.204.

As for C12G U63A, the self-cleavage stood at 0.194.

Turning to G13A G54A, the self-cleavage came out at 0.443.

As for G13C A71C, the self-cleavage came out at 1.22.

Regarding G13C A26C, the self-cleavage is 0.403.

On to G13C A24G, for which the self-cleavage was 0.537.

In the case of G13U U63A, the self-cleavage worked out at 0.103.

On to G13U U63C, for which the self-cleavage worked out at 0.181.

Regarding G13C G32U, the self-cleavage was 0.027.

With G13C G32A, the self-cleavage was 0.12.

As to C12U U62A, the self-cleavage is 0.148.

As for C12U A59C, the self-cleavage is 0.149.

For G13C A31U, the self-cleavage came out at 0.0909.

For the variant G13A A28G, the self-cleavage came out at 1.

Take G13U A31C: the self-cleavage stood at 0.133.

As to G13C G25C, the self-cleavage amounted to 0.356.

For G13A G32U, the self-cleavage worked out at 0.205.

In the case of C12G G32C, the self-cleavage was 0.0993.

On to G13A G51A, for which the self-cleavage came to 0.87.

As to G13A G51U, the self-cleavage was 0.821.

As to C12G U20A, the self-cleavage turned out to be 0.795.

Regarding C12U A45C, the self-cleavage was 0.201.

Turning to G13A U53C, the self-cleavage turned out to be 0.645.

Take G13U G17A: the self-cleavage was determined as 0.69.

With G13A G29C, the self-cleavage worked out at 0.153.

Turning to G13A G29A, the self-cleavage amounted to 0.167.

Consider U14C A39G, for which the self-cleavage is 0.243.

In the case of U14C A39C, the self-cleavage is 0.475.

Regarding C12U A31G, the self-cleavage was 0.549.

For C12U C46G, the self-cleavage came out at 0.142.

For the variant C12U C46A, the self-cleavage came to 0.177.

As to C12U A43C, the self-cleavage was found to be 0.105.

Take G13A C65U: the self-cleavage was 0.285.

As to U14C A35U, the self-cleavage is 0.713.

Turning to U14C A35G, the self-cleavage was found to be 0.953.

Turning to C12U G51A, the self-cleavage was found to be 1.01.

For C12U G51U, the self-cleavage came out at 0.872.

Consider C12U G51C, for which the self-cleavage turned out to be 0.809.

Regarding G13A A23U, the self-cleavage is 0.734.

Take G13C U62C: the self-cleavage was 0.147.

Regarding G13U C16A, the self-cleavage was 0.558.

For the variant C12G G29U, the self-cleavage was 0.234.

With C12G G29C, the self-cleavage stood at 0.13.

Take G13C A22C: the self-cleavage stood at 0.591.

In the case of C12G U53G, the self-cleavage was 0.562.

For C12G U53C, the self-cleavage was 0.919.

Take C12G U53A: the self-cleavage stood at 0.911.

Take C12U G19C: the self-cleavage stood at 0.955.

On to C12U A22C, for which the self-cleavage stood at 0.831.

For G13A G69C, the self-cleavage was determined as 0.275.

Regarding G13C A28U, the self-cleavage was 0.252.

For the variant G13C A28G, the self-cleavage turned out to be 0.85.

Take G13U U60C: the self-cleavage amounted to 0.902.

With G13U U60A, the self-cleavage amounted to 0.696.

As for G13U U60G, the self-cleavage is 0.404.

For C12G G17A, the self-cleavage worked out at 0.913.

Consider G13C A41C, for which the self-cleavage stood at 0.892.

With G13C A41U, the self-cleavage is 0.819.

As to G13C A41G, the self-cleavage came to 0.498.

On to G13C A35C, for which the self-cleavage was 0.717.

On to G13U G54C, for which the self-cleavage is 0.293.

Consider G13C U70G, for which the self-cleavage worked out at 0.502.

G13A A47G: the self-cleavage amounted to 0.185.

For the variant G13A A47C, the self-cleavage was 0.352.

Consider U14C A31U, for which the self-cleavage is 0.0592.

Regarding U14C A31C, the self-cleavage is 0.0434.

As for U14A A59U, the self-cleavage amounted to 0.28.

As to C12U G54C, the self-cleavage was determined as 0.47.

Regarding G13A U55G, the self-cleavage came out at 0.112.

For the variant C12U C38U, the self-cleavage was 0.523.

In the case of G13A G21A, the self-cleavage came to 0.594.

For G13A G21C, the self-cleavage turned out to be 0.862.

Consider C12U A71C, for which the self-cleavage came to 1.31.

For C12U A71U, the self-cleavage turned out to be 0.656.

Consider C12U U67G, for which the self-cleavage was 0.286.

C12U U67A: the self-cleavage stood at 0.348.

Turning to G13A A44C, the self-cleavage was 0.195.

With G13A A44U, the self-cleavage was determined as 0.133.

Take G13U U55G: the self-cleavage was determined as 0.124.

With G13C C18U, the self-cleavage was determined as 0.817.

With G13C C18G, the self-cleavage is 0.807.

In the case of G13U G29C, the self-cleavage is 0.133.

Regarding G13U G29A, the self-cleavage came out at 0.157.

On to G13U G56U, for which the self-cleavage is 0.135.

Consider G13U G56A, for which the self-cleavage was 0.127.

For G13A A26U, the self-cleavage was found to be 0.529.

On to G13A A26G, for which the self-cleavage is 0.778.

For the variant G13A A26C, the self-cleavage amounted to 0.556.

For G13A G40A, the self-cleavage was determined as 0.33.

Turning to C12G U60G, the self-cleavage was 0.452.

For the origin of these results see the RNAGym collection of RNA variant scans (doi:10.7554/elife.80360).
